Laboratory results reported in paper PMC3240954 (Scientific Reports, 2011).

Key:
[1] = biological target: H6-WhiA full-length (Streptomyces coelicolor, UniProt Q9Z515 1-328); experiment: competition
[2] = biological target: WhiA (S. coelicolor), full-length, untagged (S. coelicolor, UniProt Q9Z515 1-328); experiment: pull-down
WhiA (S. coelicolor), full-length, untagged, sequence (Q9Z515 whole entry): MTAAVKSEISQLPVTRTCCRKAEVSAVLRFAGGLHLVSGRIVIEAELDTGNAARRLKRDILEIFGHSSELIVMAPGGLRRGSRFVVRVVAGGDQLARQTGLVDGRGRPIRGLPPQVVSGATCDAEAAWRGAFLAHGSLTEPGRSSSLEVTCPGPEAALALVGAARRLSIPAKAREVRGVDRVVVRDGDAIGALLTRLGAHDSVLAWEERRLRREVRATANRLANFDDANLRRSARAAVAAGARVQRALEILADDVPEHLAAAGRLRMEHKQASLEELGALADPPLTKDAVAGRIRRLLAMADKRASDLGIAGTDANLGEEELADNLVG

H6-WhiA full-length, sequence (Q9Z515 whole entry): as above

| Binder | binding result [1] | binding result [2] |
| --- | --- | --- |
| -22/A (dsDNA) DNA 1: CGTCATTTGGAGGTTTTGGGACAACACGCCCCTAAACTCGCCCT DNA 2: AGGGCGAGTTTAGGGGCGTGTTGTCCCAAAACCTCCAAATGACG | binds | – |
| His-tagged WhiG (H6-WhiG) (natural protein, UniProt P17211 1-280, looked up) MPQHTSGSDRAAIPPAARDGGSVRPPAPSTLDELWRSYKTTGDERLREQLILHYSPLVKYVAGRVSVGLPPNVEQADFVSSGVFGLIDAIEKFDVDREIKFETYAITRIRGAMIDELRALDWIPRSVRQKARNVERAYATLEARLRRTPSESEVAVEMGIAVEDLHAVFSQLSLANVVALEELLHAGGEGGGRLSLMDTLEDTAADNPVEVAEDRELRRLLARAINTLPEREKTVVTLYYYEGLTLAEIGNVLGVTESRVSQIHTKSVLQLRAKLAGFGR | – | binds |
